Results as given in publication PMC12176259, “Bacterial transcriptional repressor NrdR – a flexible multifactorial nucleotide sensor” (The Febs Journal, 2024).
Where “and” joins values, the source holds several entries; their conditions need not be identical. Equal entries are not always repeated.

Columns and labels:
[1] = target: the molecule itself; test: SEC; ATP‐dATP‐loaded NrdR at high protein concentrations (440–550 μM)
[2] = target: the molecule itself; test: SEC; Superdex 200 PC 3.2/30, 4–8 °C, Tris–HCl pH 9.0, 300 mM NaCl; NrdR pre‐incubated with AMP and dAMP
[3] = target: the molecule itself; test: SEC; Superdex 200 PC 3.2/30, 4–8 °C, Tris–HCl pH 9.0, 300 mM NaCl; NrdR with 0.2 mM ADP and 0.2 mM MgCl2
[4] = target: the molecule itself; test: SEC; Superdex 200 PC 3.2/30, 4–8 °C, 25 or 50 mM Tris–HCl pH 9.0, 300 mM NaCl; 55 μM apo‐NrdR, no nucleotide effectors
[5] = target: the molecule itself; test: SEC; Superdex 200 PC 3.2/30, 4–8 °C, Tris–HCl pH 9.0, 300 mM NaCl; ATP‐loaded NrdR (0.1 mM ATP), low MgCl2 (0.1–0.2 mM); 17–55 μM NrdR
[6] = target: the molecule itself; test: SEC; Superdex 200 PC 3.2/30, 4–8 °C, Tris–HCl pH 9.0, 300 mM NaCl; ATP‐loaded NrdR, excess MgCl2 (1 mM or higher); elutes in the void volume
[7] = target: the molecule itself; test: SEC; Superdex 200 PC 3.2/30, 4–8 °C, Tris–HCl pH 9.0, 300 mM NaCl; NrdR pre‐incubated with ATP and dATP, nucleotides in the SEC buffer; 7–55 μM NrdR
[8] = target: the molecule itself; test: SEC; Superdex 200 PC 3.2/30, 4–8 °C, Tris–HCl pH 9.0, 300 mM NaCl; NrdR pre‐incubated with ADP and dATP, nucleotides in the SEC buffer; 10–90 μM NrdR
[9] = target: the molecule itself; test: crystal structure; SeMet‐EcoNrdR with ATP and dATP, 10 mg/mL; 0.1 M HEPES pH 7.5, 0.2 M MgCl2, 12.5% PEG 3350, 20 °C; one tetramer in the asymmetric unit

Protein | stoichiometry N [1] | stoichiometry N [2] [subunits] | stoichiometry N [3] [subunits] | stoichiometry N [4] [subunits] | stoichiometry N [5] [subunits] | stoichiometry N [6] [subunits] | stoichiometry N [7] [subunits] | stoichiometry N [8] [subunits] | binding result [9]
Escherichia coli NrdR (natural protein, E. coli K‐12 strain MG1655, Transcriptional repressor NrdR of E. coli K‐12 strain MG1655, wild type (NP_414947.1); The oligomeric state depends on the loaded nucleotides (apo: dimer); ATP‐dATP, ADP‐dATP, ADP, AMP‐dAMP: tetramer; also called EcoNrdR; E. coli NrdR; source: E. coli BL21(DE3), purified (HisTrap FF Ni‐Sepharose, desalting)) MHCPFCFAVDTKVIDSRLVGEGSSVRRRRQCLVCNERFTTFEVAELVMPRVVKSNDVREPFNEEKLRSGMLRALEKRPVSSDDVEMAINHIKSQLRATGEREVPSKMIGNLVMEQLKKLDKVAYIRFASVYRSFEDIKEFGEEIARLED | 8 subunits and 16 subunits | 4.8 | 4.5 | 2.1 | 12.1 | > 33 | 4.5 | 4.8 | 
Selenomethionine‐derivatized Escherichia coli NrdR (natural protein, E. coli K‐12 strain MG1655, selenomethionine in place of methionine, Transcriptional repressor NrdR of E. coli K‐12 strain MG1655, wild type (NP_414947.1), from the same plasmid pET30a(+)::nrdR as m1; Same construct as m1, made in a methionine auxotroph with seleno‐L‐methionine; also called SeMet‐EcoNrdR; Se‐Met substituted EcoNrdR; source: E. coli B834 (DE3) in SelenoMet Minimal Media, purified) MHCPFCFAVDTKVIDSRLVGEGSSVRRRRQCLVCNERFTTFEVAELVMPRVVKSNDVREPFNEEKLRSGMLRALEKRPVSSDDVEMAINHIKSQLRATGEREVPSKMIGNLVMEQLKKLDKVAYIRFASVYRSFEDIKEFGEEIARLED |  |  |  |  |  |  |  |  | binds
